These results are taken from patent US20220143214A1.

Experiment [1] addresses LY6C1 (Ly6c1, C57BL/6J mouse, splice variant 1) (mouse (C57BL/6J)) (UniProt P0CW02). Put plainly: cell-based or functional assay.
In experiment [2] the target is LY6A (Ly6a, C57BL/6J mouse) (mouse (C57BL/6J)) (UniProt P05533). Put plainly: AAV library bound to Ly6a-transfected HEK293T cells, NGS.
The target in experiment [3] is LY6C1 (Ly6c1, C57BL/6J mouse, splice variant 1) (mouse (C57BL/6J)) (UniProt P0CW02). Put plainly: AAV library bound to Ly6c1-transfected HEK293T cells, NGS.
Experiment [4] concerns the target LY6A (Ly6a, C57BL/6J mouse) (mouse (C57BL/6J)) (UniProt P05533). Put plainly: AAV library bound to Ly6a-transfected HEK293T cells, NGS. This is another data set of the same source.
For experiment [5], the target named is LY6C1 (Ly6c1, C57BL/6J mouse, splice variant 1) (mouse (C57BL/6J)) (UniProt P0CW02). Put plainly: AAV library bound to Ly6c1-transfected HEK293T cells, NGS. This is another data set of the same source.
Experiment [6] concerns the target LY6A (Ly6a, C57BL/6J mouse) (mouse (C57BL/6J)) (UniProt P05533). Put plainly: qPCR of viral genomes bound to Ly6a-transfected HEK293T cells.
For experiment [7] the target is unchanged. Put plainly: cell-based or functional assay.
The target is the same in experiment [8]. Put plainly: binding (qPCR) and transduction of cells with ectopic LY6A.
For experiment [9] the target is unchanged. Put plainly: qPCR of viral genomes bound to BMVECs treated with Ly6a sgRNAs (CRISPR/SaCAS9).

Read-outs that look alike come from different tables or passages of the source.

Sequence of UniProt P05533 (P05533 27-112 limits assumed): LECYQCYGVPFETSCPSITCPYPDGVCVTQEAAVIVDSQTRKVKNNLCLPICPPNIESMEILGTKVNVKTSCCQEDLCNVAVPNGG
Sequence of UniProt P0CW02 (P0CW02 27-109 limits assumed, change not shown): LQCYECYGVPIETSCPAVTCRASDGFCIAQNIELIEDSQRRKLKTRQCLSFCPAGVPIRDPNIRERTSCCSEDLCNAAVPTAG

The substance AAV9 K449R 7-mer variant C28 (KSVGSVY) yielded a transduction of hCMEC cells (firefly luciferase assay) (logs (base 10)) in experiment [1] of 2. For the same substance, the figures for the fold enrichment (log2) in [2] and in experiment [3] were -1.24 log2 and 3.59 log2, respectively.

As for AAV9 K449R 7-mer variant TRNGYST, the fold enrichment (log2) is 0.82 log2 in experiment [4], 0.186 log2 in experiment [2], 5.58 log2 in experiment [5] and 4.05 log2 in [3].

Consider AAV-PHP.B, for which, in [6], the fold increase in binding on Ly6a expression was over 50 fold.

As for AAV-PHP.B2, in experiment [6], the fold increase in binding on Ly6a expression is over 50 fold.

In the case of AAV-PHP.B3, the fold increase in binding on Ly6a expression in [6] was over 50 fold.

On to AAV-PHP.eB, for which, in experiment [7], the transduction of HEK293T cells (Luciferase assay) was 30 fold and the transduction of hCMEC cells (firefly luciferase assay) (logs (base 10)) was determined as 2. In addition, in experiment [8], the fold increase in binding and transduction on LY6A expression was over 30 fold. The substance further returned a fold increase in binding on Ly6a expression in experiment [6] of over 50 fold. The substance further had a reduction in binding after Ly6a disruption in experiment [9] of 50%.
